The values below come from article PMC5951847, “Substrate sequence selectivity of APOBEC3A implicates intra-DNA interactions”.

In general, Kd refers to the constant that tells how readily two partners part at equilibrium.

The first series deals with T1, A3A(E72A) (Homo sapiens, UniProt P31941 1-199, E72A). The experiment in a line: fluorescence anisotropy; pH 6.0; 50 mM MES pH 6.0, 100 mM NaCl, 0.5 mM TCEP, room temperature overnight, 10 nM TAMRA-oligo; competition with 300 nM A3A(E72A); pH series: acetate 4.0-5.0, MES 5.5-6.5, HEPES 7.0-8.0, Tris 8.5-9.0. The conditions noted are these: protein: recombinant; tags: His6-SUMO removed by Ulp1 (untagged); label: 5' TAMRA. On the technique in general: Polarisation of emitted light reports the rotation of a fluorescent probe.
T1 sequence (P31941 whole entry E72A): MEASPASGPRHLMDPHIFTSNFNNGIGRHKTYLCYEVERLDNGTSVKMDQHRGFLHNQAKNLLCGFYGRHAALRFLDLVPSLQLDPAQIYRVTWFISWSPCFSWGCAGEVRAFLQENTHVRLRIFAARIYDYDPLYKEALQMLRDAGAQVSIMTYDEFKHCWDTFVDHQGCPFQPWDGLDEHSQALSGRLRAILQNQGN
As to AAACTCTAAAAA (ssDNA) [Poly A-CTCT (3A-CTCT-5A)], the Kd was 122 ± 2 nM.

As for AAAATCAAAAAA (ssDNA) [Poly A-ATCA (3A-ATCA-5A)], the dissociation constant (Kd) was determined as 145 ± 2 nM.

As for AAATTCAAAAAA (ssDNA) [Poly A-TTCA (3A-TTCA-5A)], the Kd is 90 ± 1 nM.

As for AAAATCTAAAAA (ssDNA) [Poly A-ATCT (3A-ATCT-5A)], the Kd is 209 ± 5 nM.

As to AAAGTCCAAAAA (ssDNA) [Poly A-GTCC (3A-GTCC-5A)], the Kd turned out to be 152 ± 2 nM.

AAATTCCAAAAA (ssDNA) [Poly A-TTCC (3A-TTCC-5A)]: the dissociation constant (Kd) stood at 114 ± 2 nM.

With AAAATCGAAAAA (ssDNA) [Poly A-ATCG (3A-ATCG-5A)], the Kd came out at 154 ± 2 nM.

On to AAATTCTAAAAA (ssDNA) [Poly A-TTCT (3A-TTCT-5A)], for which the Kd amounted to 127 ± 2 nM.

With AAAGTCAAAAAA (ssDNA) [Poly A-GTCA (3A-GTCA-5A)], the dissociation constant (Kd) amounted to 150 ± 3 nM.

As for AAAACCAAAAAA (ssDNA) [Poly A-CC (4A-CC-6A)], the Kd was determined as 250 ± 14 nM.

Regarding TTTTTCTTTTTT (ssDNA) [Poly T-C (5T-C-6T)], the dissociation constant (Kd) came out at 35 ± 2 nM.

Take AAAGTCTAAAAA (ssDNA) [Poly A-GTCT (3A-GTCT-5A)]: the Kd amounted to 218 ± 7 nM.

In the case of AAACTCAAAAAA (ssDNA) [Poly A-CTCA (3A-CTCA-5A)], the Kd is 85 ± 1 nM.

In the case of CCCCCCCCCCCC (ssDNA) [Poly C (12 C)], the Kd stood at 1570 ± 117 nM.

For AAAATCCAAAAA (ssDNA) [Poly A-ATCC (3A-ATCC-5A)], the Kd is 163 ± 3 nM.

Consider AAAATCAAAAAA (ssDNA) [Poly A-TC (4A-TC-6A)], for which the dissociation constant (Kd) amounted to 143 ± 4 nM.

Regarding AAAGTCGAAAAA (ssDNA) [Poly A-GTCG (3A-GTCG-5A)], the Kd is 150 ± 3 nM.

In the case of AAACTCCAAAAA (ssDNA) [Poly A-CTCC (3A-CTCC-5A)], the Kd was determined as 101 ± 2 nM.

For the molecule TTTTTTTTTTTT (ssDNA) [Poly T (12 T)], the Kd is 748 ± 44 nM.

The series is the same for the next values; noted with them: protein: recombinant; tags: His6-SUMO removed by Ulp1 (untagged); label: TAMRA (5'); hairpin.
In the case of GCCAUCUAUCGAUGGG (structured_RNA) [SDHB hairpin RNA (UC in loop)], the Kd came to 37 nM.

GCCAUCUAAAGAUGGG (structured_RNA) [SDHB hairpin RNA, loop UC to AA]: the Kd came to 202 nM.

The target of a further series is T1, A3A(E72A). In words: competition; vs TAMRA-3A-TTCA-6A; 50 mM MES pH 6.0, 100 mM NaCl, 0.5 mM TCEP, room temperature overnight, 10 nM TAMRA-oligo; competition with 300 nM A3A(E72A); pH series: acetate 4.0-5.0, MES 5.5-6.5, HEPES 7.0-8.0, Tris 8.5-9.0. The conditions noted are these: protein: recombinant; tags: His6-SUMO removed by Ulp1 (untagged); label: unlabeled.
In the case of TTCAA (ssDNA) [TTCA-1A], the binding result is reported as “no binding”.

Consider ATTCA (ssDNA) [1A-TTCA], for which the binding result is listed as “no binding”.
